{"source": "patent US20110110945A1", "about": "“Immunoglobulin Fusion Proteins and Methods of Making” (TransTech Pharma, Inc., priority 2007, published 2011)", "key": {"[1]": {"molecular_target": "T1, amyloid-beta (Amyloid Beta (1-40)) (Homo sapiens, UniProt P05067)", "T1 construct": "Amyloid Beta (1-40) from Biosource; purchased Biosource", "T1 sequence (P05067 672-711 limits assumed)": "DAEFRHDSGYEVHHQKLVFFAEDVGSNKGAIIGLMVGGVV", "assay": "In vitro ligand binding assay (ELISA), immobilized amyloid-beta", "details": "ligand 5 micrograms per well; dilutions of initial fusion protein solution; FIG. 7", "experimental": "(§1) For example, the fusion protein may be used in a binding assay to identify potential ligands that bind to the non-immunoglobulin protein. In one example embodiment of such a binding assay, a known ligand may coated onto a solid substrate (e.g., Maxisorb plates) at a biologically relevant concentration (e.g., about 5 micrograms per well), where each well contains a total volume of about 100 microliters (μL). The plates may be incubated at 4° C. overnight to allow the ligand to bind to the substrate. Alternatively, shorter incubation periods at higher temperature (e.g., room temperature) may be used. After a period of time to allow for the ligand to bind to the substrate, the assay wells may be aspirated and a blocking buffer (e.g., 1% BSA in 50 mM imidizole buffer, pH 7.2) may be added to block nonspecific binding. […] The fusion protein bound to the immobilized ligand may be detected in a variety of ways. […] The bound complex may be detected by adding a substrate for the secondary antibody complex, e.g., the alkaline phosphatase substrate, para-nitrophenylphosphate (PNPP), and measuring conversion of PNPP to para-nitrophenol (PNP) as an increase in absorbance at 405 nm. […] In the absence of ligand (i.e., coating with only BSA) there was no increase in absorbance. The binding assay of the present invention may be used to quantify ligand binding. […]"}, "[2]": {"test_system": "S100b/RAGE-induced production of TNF-α in THP-1 cells", "assay": "Inhibition of S100b/RAGE-induced production of TNF-α in THP-1 cells", "type": "cell-based", "details": "10 μg protein, FIG. 10", "excerpt": "One embodiment of a use of a RAGE fusion protein of the present invention to modulate expression of the cellular effector TNF-α is shown in FIG. 10. THP-1 myeloid cells may be cultured in RPMI-1640 media supplemented with 10% FBS and induced to secrete TNF-α via stimulation of RAGE with S100b. When such stimulation occurs in the presence of a RAGE fusion protein of the invention, induction of TNF-α by S100b binding to RAGE may be inhibited.\nPrevious work has shown that the myeloid THP-1 cells may secrete TNF-α in response to RAGE ligands. In this assay, THP-1 cells were cultured in RPMI-1640 media supplemented with 10% FBS using a protocol provided by ATCC. […] The amount of TNF-α secreted by the THP-1 cells was measured 24 hours after the addition of the proteins to the cell culture using a commercially available ELISA kit for TNF-α (R&D Systems, Minneapolis, Minn.)."}, "amphoterin": {"molecular_target": "T2, amphoterin (Homo sapiens, UniProt P09429)", "T2 sequence (P09429 1-215)": "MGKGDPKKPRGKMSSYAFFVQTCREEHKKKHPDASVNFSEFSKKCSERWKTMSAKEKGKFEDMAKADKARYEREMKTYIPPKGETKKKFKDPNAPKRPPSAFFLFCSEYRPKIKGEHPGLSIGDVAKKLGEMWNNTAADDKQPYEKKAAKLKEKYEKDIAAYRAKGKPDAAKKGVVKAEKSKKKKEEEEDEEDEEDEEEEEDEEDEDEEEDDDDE", "assay": "In vitro ligand binding assay (ELISA), immobilized amphoterin", "details": "ligand 5 micrograms per well; dilutions of initial fusion protein solution; FIG. 7", "experimental": "as §1"}, "mice that have AD": {"test_system": "mice that have AD", "assay": "Mice that have Alzheimer's Disease, treated for 3 months", "type": "in vivo", "details": "versus vehicle or human IgG negative control (IgG1)", "excerpt": "Also, fusion proteins of the present invention comprising a RAGE ligand binding site may also be used to treat reduce amyloidosis and to reduce amyloid plaques and cognitive dysfunction associated with Alzheimer's Disease (AD)."}, "Fc receptor [3]": {"test_system": "Fc receptor", "assay": "Fc receptor activation: TNF-α secretion from THP-1 cells", "details": "well precoated with 10 ug/well heat aggregated protein, 24 hours, FIG. 12", "description": "(§2) Fc receptor activation was measured by measuring TNF-α secretion from THP-1 cells that express the Fc receptor. […] Fc stimulation results in TNF-α secretion. The amount of TNF-α was measured by an Enzyme Linked Immunoabsorbent Assay (ELISA).\n(§3) Thus, in this assay, the myeloid cell line, THP-1 (ATTC #TIB-202) was maintained in RPMI-1640 media supplemented with 10% fetal bovine serum per ATCC instructions. […] The amount of TNF-alpha secreted by the THP-1 cells was measured in supernatants collected from 24 hours cultures of cells in the treated wells using a commercially available TNF ELISA kit (R&D Systems, Minneapolis, Minn. #DTA00C) per instructions."}, "Fc receptor [4]": {"test_system": "Fc receptor", "description": "as §2, §3"}}, "note": "Entries after “also recorded” stand apart in the source; their conditions may differ.", "data": [{"molecule": "TTP-4000: RAGE fusion protein: V and C1 domains of human RAGE (amino acids 1-251) linked to hinge-less CH2 and CH3 of human IgG1; SEQ ID NO: 16/18 (protein, synthetic four domain RAGE-Fc IgG fusion protein; synthetic four domain RAGE-Fc IgG fusion protein having signal sequence removed) chain 1: MAAGTAVGAWVLVLSLWGAVVGAQNITARIGEPLVLKCKGAPKKPPQRLEWKLNTGRTEAWKVLSPQGGGPWDSVARVLPNGSLFLPAVGIQDEGIFRCQAMNRNGKETKSNYRVRVYQIPGKPEIVDSASELTAGVPNKVGTCVSEGSYPAGTLSWHLDGKPLVPNEKGVSVKEQTRRHPETGLFTLQSELMVTPARGGDPRPTFSCSFSPGLPRHRALRTAPIQPRVWEPVPLEEVQLVVEPEGGAVAPPSVFLFPPKPKDTLMISRTPEVTCVVVDVSHEDPEVKFNWYVDGVEVHNAKTKPREEQYNSTYRVVSVLTVLHQDWLNGKEYKCKVSNKALPAPIEKTISKAKGQPREPQVYTLPPSRDELTKNQVSLTCLVKGFYPSDIAVEWESNGQPENNYKTTPPVLDSDGSFFLYSKLTVDKSRWQQGNVFSCSVMHEALHNHYTQKSLSLSPGK chain 2: ENITARIGEPLVLKCKGAPKKPPQRLEWKLNTGRTEAWKVLSPQGGGPWDSVARVLPNGSLFLPAVGIQDEGIFRCQAMNRNGKETKSNYRVRVYQIPGKPEIVDSASELTAGVPNKVGTCVSEGSYPAGTLSWHLDGKPLVPNEKGVSVKEQTRRHPETGLFTLQSELMVTPARGGDPRPTFSCSFSPGLPRHRALRTAPIQPRVWEPVPLEEVQLVVEPEGGAVAPPSVFLFPPKPKDTLMISRTPEVTCVVVDVSHEDPEVKFNWYVDGVEVHNAKTKPREEQYNSTYRVVSVLTVLHQDWLNGKEYKCKVSNKALPAPIEKTISKAKGQPREPQVYTLPPSRDELTKNQVSLTCLVKGFYPSDIAVEWESNGQPENNYKTTPPVLDSDGSFFLYSKLTVDKSRWQQGNVFSCSVMHEALHNHYTQKSLSLSPGK", "values": [{"measurement": "binding to immobilized amyloid-beta (increase in absorbance at 405 nm)", "setting": "[1]", "result": "able to bind; also recorded: specifically interact"}, {"measurement": "reduction of S100b induction of TNF-α", "setting": "[2]; S100b 0.1 mg/ml FAC, TNF-α ELISA at 24 hours", "result": "~70", "unit": "%"}, {"measurement": "S100b induction of TNF-α, result in words", "setting": "[2]; S100b 0.1 mg/ml", "result": "at least as effective"}, {"measurement": "binding to immobilized amphoterin (increase in absorbance at 405 nm)", "setting": "amphoterin", "result": "able to bind; also recorded: specifically interact"}, {"measurement": "amyloid beta (Aβ) plaques", "setting": "mice that have AD", "result": "fewer amyloid beta (Aβ) plaques"}, {"measurement": "cognitive dysfunction", "setting": "mice that have AD", "result": "less cognitive dysfunction"}, {"measurement": "TNF generated (Fc receptor activation)", "setting": "Fc receptor [3]", "result": "less than 2 ng/well"}, {"measurement": "stimulation of TNF-α release from cells, in words", "setting": "Fc receptor [4]", "result": "does not stimulate TNF-α release"}]}]}
